According to PMC11283359 (Molecular cell, 2024):

T1: 3XFLAG-MED26 (knock-in) (mouse (endogenous in CH12), UniProt Q7TN02 1-588)
T1 sequence (looked up): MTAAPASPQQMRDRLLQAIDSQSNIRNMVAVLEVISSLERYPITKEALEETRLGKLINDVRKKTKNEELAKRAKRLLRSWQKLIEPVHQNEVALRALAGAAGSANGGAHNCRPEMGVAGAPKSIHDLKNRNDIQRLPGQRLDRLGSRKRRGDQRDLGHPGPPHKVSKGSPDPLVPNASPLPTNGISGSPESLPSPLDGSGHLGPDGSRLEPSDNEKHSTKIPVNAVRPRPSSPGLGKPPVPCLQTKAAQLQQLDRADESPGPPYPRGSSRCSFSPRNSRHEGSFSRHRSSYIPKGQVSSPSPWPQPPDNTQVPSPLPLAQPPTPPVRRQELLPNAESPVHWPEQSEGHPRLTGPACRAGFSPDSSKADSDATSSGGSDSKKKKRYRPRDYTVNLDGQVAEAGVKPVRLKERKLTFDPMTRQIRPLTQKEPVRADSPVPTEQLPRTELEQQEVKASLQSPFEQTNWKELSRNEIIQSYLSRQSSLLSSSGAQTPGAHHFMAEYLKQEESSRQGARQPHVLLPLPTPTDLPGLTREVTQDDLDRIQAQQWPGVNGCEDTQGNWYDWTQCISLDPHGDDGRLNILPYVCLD


Target: T1, 3XFLAG-MED26 (knock-in)
Assay: cryo-EM structure

| binding result | Binder |
| --- | --- |
| binds | MED21 (natural protein, mouse (endogenous in CH12), UniProt Q9CQ39 1-144, looked up) MADRLTQLQDAVNSLADQFCNAIGVLQQCGPPASFSNIQTAINKDQPANPTEEYAQLFAALIARTAKDIDVLIDSLPSEESTAALQAASLYKLEEENHEAATCLEDVVYRGDMLLEKIQSALADIAQSQLKTRSVTHSHSLPDS |
| binds | MED7 (natural protein, mouse (endogenous in CH12), UniProt Q9CZB6 1-233, looked up) MGEPQQVSALPPPPMQYIKEYTDENIQEGLAPKPPPPIKDSYMMFGNQFQCDDLIIRPLESQGIERLHPMQFDHKKELRKLNMSILINFLDLLDILIRSPGSIKREEKLEDLKLLFVHVHHLINEYRPHQARETLRVMMEVQKRQRLETAERFQKHLERVIEMIQNCLASLPDDLPHSEAGMRVKAEPMDTDDNSNCPGQNEQQRESSGHRRDQIIEKDAALCVLIDEMNERP |
| binds | MED31 (endogenous) (natural protein, mouse (endogenous in CH12), UniProt Q9CXU1 1-131, looked up) MAAAVAMETDDAGNRLRFQLELEFVQCLANPNYLNFLAQRGYFKDKAFVNYLKYLLYWKEPEYAKYLKYPQCLHMLELLQYEHFRKELVNAQCAKFIDEQQILHWQHYSRKRVRLQQALAEQQQQNNTAGK |
